Source: patent US9803013B2, “Biological materials and uses thereof” (BioInvent International AB, priority 2005, dated 2017)

B1: B11: fully human IgG1 antibody specific for ICAM-1; VH and VL sequences of FIG. 10 (SEQ ID NOs. 6 and 8) (antibody, listed as Homo sapiens, V domains shown)
VH: EVQLLESGGGLVQPGGSLRLSCAASGFTFSNAWMSWVRQAPGKGLEWVAFIWYDGSNKYYADSVKGRFTISRDNSKNTLYLQMNSLRAEDTAVYYCARYSGWYFDYWGQGTLVTVSS
VL: QSVLTQPPSASGTPGQRVTISCTGSSSNIGAGYDVHWYQQLPGTAPKLLIYDNNNRPSGVPDRFSGSKSGTSASLAISGLRSEDEADYYCQSYDSSLSAWLFGGGTKLTVLG
B2: C11: fully human IgG1 antibody specific for surface IgM; VH and VL sequences of FIG. 11 (SEQ ID NOs. 10 and 12) (antibody, listed as Homo sapiens, V domains shown)
VH: EVQLLESGGGLVQPGGSLRLSCAASGFTFGSYEMNWVRQAPGKGLEWVSVIYSGGSTYYADSVEGRFTISRDNSKNTLYLQMNSLRAEDTAVYYCARDTNPYYYYGMDVWGQGTLVTVSS
VL: QSVLTQPPSASGTPGQRVTISCSGSSSNIGNNAVNWYQQLPGTAPKLLIYRNNQRPSGVPDRFSGSKSGTSASLAISGLRSEDEADYYCQSYDSSLNGQVFGGGTKLTVLG

How the values were obtained:
[1] = system: BJAB; experiment: IgG binding to B lymphoma cell line, flow cytometry MFI; design: species or system human; conditions: Burkitt's Lymphoma, control FITC-8 IgG MFI subtracted
Description: (§1) • ^aApoptosis Induction; determined by percentage of viable cells after 6 hour incubation with any of the human antibodies, crosslinked with Goat anti-Human (gamma) Fc specific antibody; −, viability not affected; +, 95-80%; ++, 79-60%; +++, 59-40% viable cells compared to control (human FITC-8 IgG1). […] The cell line dependent MFI value of control human FITC-8 IgG antibody was subtracted from the MFI of each human antibody.

[2] = system: CL-01; experiment: as above; design: species or system human; conditions: CL-01, Burkitt's Lymphoma; control FITC-8 IgG MFI subtracted
Description: as §1

[3] = system: DOHH-2; experiment: as above; design: species or system human; conditions: DOHH-2, Follicular Lymphoma; control FITC-8 IgG MFI subtracted
Description: as §1

[4] = system: Daudi; experiment: as above; design: species or system human; conditions: Burkitt's Lymphoma, control FITC-8 IgG MFI subtracted
Description: as §1

[5] = system: Granta 519; experiment: as above; design: species or system human; conditions: Granta 519, Mantle cell Lymphoma; control FITC-8 IgG MFI subtracted
Description: as §1

[6] = system: JVM-2; experiment: as above; design: species or system human; conditions: JVM-2, Mantle cell Lymphoma; control FITC-8 IgG MFI subtracted
Description: as §1

[7] = system: Jeko-1; experiment: as above; design: species or system human; conditions: Jeko-1, Mantle cell Lymphoma; control FITC-8 IgG MFI subtracted
Description: as §1

[8] = system: NCEB-1; experiment: as above; design: species or system human; conditions: NCEB-1, Mantle cell Lymphoma; control FITC-8 IgG MFI subtracted
Description: as §1

[9] = system: RL; experiment: as above; design: species or system human; conditions: Follicular Lymphoma, control FITC-8 IgG MFI subtracted
Description: as §1

[10] = system: Raji; experiment: as above; design: species or system human; conditions: Burkitt's Lymphoma, control FITC-8 IgG MFI subtracted
Description: as §1

[11] = system: Ramos; experiment: as above; design: species or system human; conditions: Burkitt's Lymphoma, control FITC-8 IgG MFI subtracted
Description: as §1

[12] = system: Rec-1; experiment: as above; design: species or system human; conditions: Rec-1, Mantle cell Lymphoma; control FITC-8 IgG MFI subtracted
Description: as §1

[13] = system: SC-1; experiment: as above; design: species or system human; conditions: SC-1, Follicular Lymphoma; control FITC-8 IgG MFI subtracted
Description: as §1

[14] = system: SP-53; experiment: as above; design: species or system human; conditions: SP-53, Mantle cell Lymphoma; control FITC-8 IgG MFI subtracted
Description: as §1

[15] = system: WSU-NHL; experiment: as above; design: species or system human; conditions: Follicular Lymphoma, control FITC-8 IgG MFI subtracted
Description: as §1

[16] = system: Reh/KM-3; experiment: IgG binding to pre B cell leukaemia cell line, flow cytometry MFI; design: species or system human; conditions: Reh/KM-3, pre B cell Leukaemia; control FITC-8 IgG MFI subtracted
Description: as §1

[17] = system: MC/CAR; experiment: IgG binding to multiple myeloma cell line, flow cytometry MFI; design: species or system human; conditions: control FITC-8 IgG MFI subtracted
Description: as §1

[18] = system: CL-01; experiment: Apoptosis induction by cross-linked IgG (Annexin V/PI); assay type: cell-based, human; conditions: viable cells after 6 hour incubation, crosslinked, compared to control FITC-8 IgG1
Description: (§2) 2×10^5 B lymphoma cells (Raji or Ramos) or Jurkat T cells were incubated with serially diluted and detoxified scFv's in culture medium for 1 h on ice.
(§3) When whole IgGs were used for apoptosis induction, cross-linking reagent was replaced by goat Fab′2 anti-human Fc γ antibody (Jackson ImmunoResearch) with minimal cross-reactivity with non-IgG antibody isotypes (to avoid unspecific cross-linking of endogenous B lymphoma associated surface immunoglobulins) and incubated, as described above, for 6 h.
(§4) Apoptotic cells were, unless otherwise stated, detected by combined staining with Annexin V Alexa Fluor 488 (AV) and Propidium Iodide (PI) (both from Molecular Probes, Invitrogen) and subsequent flow-cytometric analysis, Cells were defined as viable (AV−/PI−), early apoptotic (AV+/PI−) or late apoptotic/necrotic (AV+/PI+). AV and PI signals were recorded in the FL1 and FL2 or FL3 channels (as indicated in the text), respectively, using a FACSCalibur instrument (BD Biosciences).
as §1

[19] = system: DOHH-2; experiment: as above; assay type: cell-based, human; conditions: viable cells after 6 hour incubation, crosslinked, compared to control FITC-8 IgG1
Description: as §2, §3, §4, §1

[20] = system: Jeko-1; experiment: as above; assay type: cell-based, human; conditions: viable cells after 6 hour incubation, crosslinked, compared to control FITC-8 IgG1
Description: as §2, §3, §4, §1

[21] = system: RL; experiment: as above; assay type: cell-based, human; conditions: viable cells after 6 hour incubation, crosslinked, compared to control FITC-8 IgG1
Description: as §2, §3, §4, §1

[22] = system: WSU-NHL; experiment: as above; assay type: cell-based, human; conditions: viable cells after 6 hour incubation, crosslinked, compared to control FITC-8 IgG1
Description: as §2, §3, §4, §1

[23] = system: Daudi; experiment: as above; assay type: cell-based, human; conditions: for Apoptosis Induction: Daudi, viable cells after 6 hour incubation, crosslinked, compared to control FITC-8 IgG1
Description: as §2, §3, §4, §1
(§5) BI-505 receptor occupancy was studied following FACS analyses of tumor cells incubated with increasing concentrations of BI-505 in vitro. Briefly, following pre-blocking of tumor cell FcγR with 1 mg/ml human IgG on ice for 15 min, tumor cells were incubated with 10-fold serially diluted (10 μg/ml to 0.00001 μg/ml) AF647-BI505 and surface bound BI-505 was recorded as the mean fluorescence intensities (MFI) picked up in the FL4 channel of a FACSCalibur instrument. The experiment was repeated three times and mean MFI values were calculated and plotted as a function of antibody concentration. A binding saturation curve was generated by plotting mean MFI values as a function of BI-505 concentration. The curve was fitted using a five-parameter log-log curve and XLfit software. BI-505 concentration dependent PCD was calculated by plotting the percentage of maximal tumor PCD in vitro as a function of BI-505 concentration in a manner analogous to that described for BI-505 receptor occupancy. Briefly, tumor cells were cultured with increasing concentrations of BI-505 in the presence of hyper-cross-linking antibody reagent for 24 hr, and PCD was monitored after combined staining with Annexin V/AF488 and propidium iodide using flow cytometry. Cells received treatment in triplicate and the experiment was repeated three to five times. Mean percentage of maximal PCD was then plotted as a function of BI-505 concentration and was fitted using a five parameter log-log curve and XLfit software. In vitro PCD and in vivo anti-tumor activity were plotted as a function of receptor occupancy using curve fitting equations and data generated and described above.

[24] = system: Raji; experiment: as above; assay type: cell-based, human; conditions: for Apoptosis Induction: Raji, viable cells after 6 hour incubation, crosslinked, compared to control FITC-8 IgG1
Description: as §2, §3, §4, §1, §5

[25] = system: Ramos; experiment: as above; assay type: cell-based, human; conditions: for Apoptosis Induction: Ramos, viable cells after 6 hour incubation, crosslinked, compared to control FITC-8 IgG1
Description: as §2, §3, §4, §1, §5

Molecule	MFI [1]	MFI [2]	MFI [3]	MFI [4]	MFI [5]	MFI [6]	MFI [7]	MFI [8]	MFI [9]	MFI [10]	MFI [11]	MFI [12]	MFI [13]	MFI [14]	MFI [15]	MFI [16]	MFI [17]	Apoptosis Induction [18]	Apoptosis Induction [19]	Apoptosis Induction [20]	also measured
B1	310	600	100	150	260	100	30	340	100	420	100	380	0	90	0	20	120	++ (79-60%)	−	+ (95-80%)	Apoptosis Induction [21]: −; Apoptosis Induction [22]: −; Apoptosis Induction [23]: + (95-80%); PCD induction ([23]; ICAM-1-expressing Daudi lymphoma cells): dose-dependently induced PCD; PCD induction ([24]; ICAM-1-expressing Raji lymphoma cells): dose-dependently induced PCD; Apoptosis Induction [24]: + (95-80%); PCD induction ([25]; ICAM-1-expressing Ramos lymphoma cells): dose-dependently induced PCD; Apoptosis Induction [25]: ++ (79-60%)
B2	510	60	90	450	60	10	1040	10	210	20	240	900	50	360	60	0	0	+ (95-80%)	−	++ (79-60%)	Apoptosis Induction [21]: −; Apoptosis Induction [22]: −; Apoptosis Induction [23]: + (95-80%); Apoptosis Induction [24]: + (95-80%); Apoptosis Induction [25]: +++ (59-40% viable cells compared to control (human FITC-8 IgG1))
